From paper PMC10287910 come the findings set out here.

Data set [1] relates to ParA2 K124R (Vibrio cholerae). The data set can be described thus: EMSA.
For data set [2], the system named is ParA2 K124Q (Vibrio cholerae). The data set can be described thus: EMSA.
Data set [3] deals with ParA2-GFP (Vibrio cholerae). Briefly: EMSA.
The test system of the next data set is ParA2 (Vibrio cholerae). The data set can be described thus: EMSA.
For data set [4], the system named is ParA2 K124E (Vibrio cholerae). The data set can be described thus: EMSA.
Data set [5] deals with ParA2 ATPase (wild type), Vibrio cholerae chromosome 2 (Vibrio cholerae). The data set can be described thus: SEC-MALS; 40 uM ParA2 alone or pre-incubated with ADP or ATP; Superdex 200 10/300 GL; 50 mM Tris-HCl pH 7.5, 100 mM NaCl, 5.0 mM MgCl2, 0.1 mM EDTA, 1.0 mM DTT, 1.0 mM NaN3; monomer to dimer.
For data set [6] the target is unchanged.

With “CGAGGTCGACGGTATCGATAAGCTTGATATCGAATTCCTGCAGCCCGGGGGATCCACTAGTTCTAGAGC (double strand) [Cy3-69 bp nsDNA]”, the equilibrium dissociation constant (Kd) was found to be 47.1 nM in data set [1]; 138 nM in data set [2]; 40 nM in data set [3]; 1000 nM with ParA2 (Vibrio cholerae); 452 nM in data set [4].

In data set [5], “ParA2 ATPase (wild type), Vibrio cholerae chromosome 2 (enzyme)” had a stoichiometry N of 2.

With “ParB2, Vibrio cholerae chromosome 2 (natural protein)”, in data set [6], the pre-steady state ATP hydrolysis rate of ParA2 (1.5 uM), stimulation by ParB2 at equimolar concentration was found to be 3 fold; the pre-steady state ATP hydrolysis rate of ParA2 (1.5 uM), stimulation in the presence of both DNA and ParB2 was determined as 8 fold.
